From the supplement of paper PMC7877785
± gives the uncertainty stated by the source.

Assay: self-splicing fitness, log relative to wild type (ln ratio); higher = more splicing; Tetrahymena group I intron in knt gene, E. coli kanamycin selection, DiMSum; sequences stand for … in CUCUCU…GGAGGGAAAAGUUAUCAGGCAUGCACCUGGUAGCUAGUCUUUAAACCAAUAGAUUGCAUCGGUUUAAAAGGCAAGACCGUCAAAUUGCGGGAAAGGGGUCAACAGCCGUUCAGUACCAAGUCUCAGGGGAAACUUUGAGAUGGCCUUGCAAAGGGUAUGGUAAUAAGCUGACGGACAUGGUCCUAACCACGCAGCCAAGUCCUAAGUCAACAGAUCUUCUGUUGAUAUGGAUGCAGUUCACAGACUAAAUGUCGGUCGGGGAAGAUGUAUUCUUCUCAUAAGAUAUAGUCGGACCUCUCCUUAAUGGGAGCUAGCGGAUGAAGUGAUGCAACACUGGAGCCGCUGGGAACUAAUUUGUAUGCGAAAGUAUAUUGAUUAGUUUUGGAGUACUCGUGGUCG
Procedure, shortened: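 Fitness was computed with DiMSum as the error-weighted combination of replicate fold changes, kanamycin versus none, each normalised to wild type. The library randomised all eight intron nucleotides of the P1ex region, with the intron placed in the knt kanamycin-resistance gene on pET-22b(+) in E. coli BL21(DE3). Six replicate transformations were grown overnight at 37°C or 30°C on LB agar with or without 25 μg/mL kanamycin, plus 100 μg/mL carbenicillin, 50 μM IPTG and 0.2% rhamnose. Pooled colonies were amplicon-sequenced on an Illumina HiSeq 2500.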

## GGUCAGCAAUAUUACGUAGA
30 °C
  self-splicing fitness (ln): -0.689 ± 0.081
37 °C
  self-splicing fitness (ln): -0.164 ± 0.096

## CCCCAGCAAUAUUACGCCCG
30 °C
  self-splicing fitness (ln): -1.79 ± 0.17
37 °C
  self-splicing fitness (ln): -2.57 ± 0.28

## UCUUAGCAAUAUUACGUCAC
37 °C
  self-splicing fitness (ln): -1.9 ± 0.33

## AGACAGCAAUAUUACGAUUA
30 °C
  self-splicing fitness (ln): -1.15 ± 0.062
37 °C
  self-splicing fitness (ln): -0.971 ± 0.086

## AAUUAGCAAUAUUACGCAGA
30 °C
  self-splicing fitness (ln): -1.71 ± 0.33
37 °C
  self-splicing fitness (ln): -1.24 ± 0.31

## GGCCAGCAAUAUUACGUACA
30 °C
  self-splicing fitness (ln): -2.75 ± 0.17
37 °C
  self-splicing fitness (ln): -1.71 ± 0.15

## CAAAAGCAAUAUUACGCUGC
30 °C
  self-splicing fitness (ln): -3.02 ± 0.25
37 °C
  self-splicing fitness (ln): -3.03 ± 0.29

## UCCAAGCAAUAUUACGAACU
30 °C
  self-splicing fitness (ln): -2.6 ± 0.15
37 °C
  self-splicing fitness (ln): -1.06 ± 0.15

## UCGAAGCAAUAUUACGGUCU
30 °C
  self-splicing fitness (ln): -2.6 ± 0.14
37 °C
  self-splicing fitness (ln): -0.844 ± 0.13

## CUGGAGCAAUAUUACGACAA
30 °C
  self-splicing fitness (ln): -2.11 ± 0.2
37 °C
  self-splicing fitness (ln): -1.7 ± 0.2

## CCAGAGCAAUAUUACGAUGC
30 °C
  self-splicing fitness (ln): -3.48 ± 0.34
37 °C
  self-splicing fitness (ln): -2.78 ± 0.29

## CUACAGCAAUAUUACGUCAC
30 °C
  self-splicing fitness (ln): -3.35 ± 0.36
37 °C
  self-splicing fitness (ln): -2.13 ± 0.18

## UAACAGCAAUAUUACGGCCG
30 °C
  self-splicing fitness (ln): -0.568 ± 0.078
37 °C
  self-splicing fitness (ln): 0.226 ± 0.12

## CCGCAGCAAUAUUACGAGCA
30 °C
  self-splicing fitness (ln): -3.01 ± 0.38
37 °C
  self-splicing fitness (ln): -3.24 ± 0.47

## GUCUAGCAAUAUUACGGGGC
37 °C
  self-splicing fitness (ln): -2.34 ± 0.36

## GUUUAGCAAUAUUACGGAUC
30 °C
  self-splicing fitness (ln): -1.18 ± 0.11
37 °C
  self-splicing fitness (ln): 0.125 ± 0.12

## CUCCAGCAAUAUUACGUAAA
30 °C
  self-splicing fitness (ln): -3.45 ± 0.17
37 °C
  self-splicing fitness (ln): -2.17 ± 0.18

## ACUGAGCAAUAUUACGUGAU
30 °C
  self-splicing fitness (ln): -3.6 ± 0.14
37 °C
  self-splicing fitness (ln): -1.76 ± 0.097

## GCUCAGCAAUAUUACGUCAU
30 °C
  self-splicing fitness (ln): -2.27 ± 0.06
37 °C
  self-splicing fitness (ln): -1.26 ± 0.074

## UACAAGCAAUAUUACGCCGG
30 °C
  self-splicing fitness (ln): -1.53 ± 0.11
37 °C
  self-splicing fitness (ln): -0.146 ± 0.18

## UCCAAGCAAUAUUACGCCUG
30 °C
  self-splicing fitness (ln): -4.15 ± 0.42
37 °C
  self-splicing fitness (ln): -2.26 ± 0.27

## AGAUAGCAAUAUUACGAGCU
30 °C
  self-splicing fitness (ln): -0.432 ± 0.13
37 °C
  self-splicing fitness (ln): -1.02 ± 0.13

## AGGGAGCAAUAUUACGACCU
30 °C
  self-splicing fitness (ln): -4.11 ± 0.33
37 °C
  self-splicing fitness (ln): -1.67 ± 0.25

## UCCAAGCAAUAUUACGCGAG
30 °C
  self-splicing fitness (ln): -4.03 ± 0.24
37 °C
  self-splicing fitness (ln): -2.93 ± 0.27

## AUGAAGCAAUAUUACGUUUA
30 °C
  self-splicing fitness (ln): -0.538 ± 0.061
37 °C
  self-splicing fitness (ln): -0.537 ± 0.079

## ACUCAGCAAUAUUACGGAUU
30 °C
  self-splicing fitness (ln): -0.597 ± 0.055
37 °C
  self-splicing fitness (ln): 0.0271 ± 0.076

## GCCCAGCAAUAUUACGUGCC
30 °C
  self-splicing fitness (ln): -3.75 ± 0.32
37 °C
  self-splicing fitness (ln): -3.18 ± 0.2

## GAGAAGCAAUAUUACGUAUG
30 °C
  self-splicing fitness (ln): -2.37 ± 0.14
37 °C
  self-splicing fitness (ln): -1.29 ± 0.14

## CCGCAGCAAUAUUACGUGGG
30 °C
  self-splicing fitness (ln): -3.41 ± 0.12
37 °C
  self-splicing fitness (ln): -3.02 ± 0.17

## AGCCAGCAAUAUUACGUCGG
30 °C
  self-splicing fitness (ln): -3.89 ± 0.3
37 °C
  self-splicing fitness (ln): -2.97 ± 0.32

## CAACAGCAAUAUUACGUAGC
30 °C
  self-splicing fitness (ln): -4.19 ± 0.12
37 °C
  self-splicing fitness (ln): -2.49 ± 0.12

## CCCUAGCAAUAUUACGUUAU
30 °C
  self-splicing fitness (ln): -4.33 ± 0.26
37 °C
  self-splicing fitness (ln): -2.76 ± 0.19

## GAGCAGCAAUAUUACGGAAC
30 °C
  self-splicing fitness (ln): -3.14 ± 0.23
37 °C
  self-splicing fitness (ln): -2.13 ± 0.16

## UUACAGCAAUAUUACGUCCC
30 °C
  self-splicing fitness (ln): -3.48 ± 0.24
37 °C
  self-splicing fitness (ln): -1.31 ± 0.25

## AGCUAGCAAUAUUACGGGCU
30 °C
  self-splicing fitness (ln): -3.47 ± 0.27
37 °C
  self-splicing fitness (ln): -2.91 ± 0.36

## CCCCAGCAAUAUUACGUUCA
30 °C
  self-splicing fitness (ln): -2.97 ± 0.12
37 °C
  self-splicing fitness (ln): -2.84 ± 0.2

## AAGAAGCAAUAUUACGAAAA
30 °C
  self-splicing fitness (ln): -1.8 ± 0.17
37 °C
  self-splicing fitness (ln): -1.57 ± 0.18

## ACUAAGCAAUAUUACGUACU
30 °C
  self-splicing fitness (ln): 0.135 ± 0.084
37 °C
  self-splicing fitness (ln): 0.635 ± 0.12
